Test results from publication PMC10902354, “Deficiency in PHD2-mediated hydroxylation of HIF2α underlies Pacak-Zhuang syndrome” (Communications Biology, 2024).
Entries after “also recorded” stand apart in the source; their conditions may differ. Square brackets hold non-standard residues; d marks the D form. Hyp = O=C(O)[C@@H]1C[C@@H](O)CN1

Columns and labels:
[1] = target: T1, PHD2 (prolyl-hydroxylase domain, residues 181–426) (Homo sapiens, UniProt Q9GZT9); assay: Microscale thermophoresis (MST) binding of HIFα-CODD peptides to the catalytic domain of PHD2; settings: for Kd (MST-determined PHD2/HIFα-CODD complex dissociation constant): 25 nM Alexa 647-labeled PHD2, Tris–HCl with NOG (1 mM NOG, 10 µM FeSO4, 5 mg/ml BSA in 2x MST Buffer pH 7.5), peptide in Tris pH 8.0, room temperature, 10 min incubation, 1:1 Kd model, triplicate measurements, highest concentration omitted for Y532H and P531A (aggregation); for Binding to PHD2 (in words): 25 nM PHD2-647, with NOG, room temperature
T1 construct: encodes for His6-PHD2 (prolyl-hydroxylase domain, residues 181–426); His6 (N, cleaved yes); made in house; host or cells: E. coli BL21(DE3)
Description: To determine if there is a direct effect of HIF2α mutations on PHD2 binding, we devised a quantitative method for determining the dissociation constant (Kd) of the HIF2α-CODD peptides and the catalytic domain of PHD2 using microscale thermophoresis (MST)[13],[14] in the presence of the PHD inhibitor n-oxalylglycine (NOG) to inhibit reaction turnover.
PHD2 was purified via a previously described but modified procedure[4],[30]. […] Cells were grown to an OD600 of 0.8 at 37 °C and expression of His6-PHD2 was induced with a final concentration of 0.5 mM IPTG. Cells were grown for an additional 3 h post-induction at 37 °C and harvested via centrifugation. Cell pellets were either used immediately for purification or stored at −80 °C for later use. Cell pellets were resuspended in Lysis Buffer (50 mM Tris–HCl pH 7.9, 500 mM NaCl, 5 mM Imidazole) containing 1x SigmaFast protease inhibitor cocktail (Sigma-Aldrich) and lysed with 3 passes through an Emulsiflex-C3 cell disruptor (Avestin) at 20-30 kPSI. […] Clarified lysates were applied to a 2 ml Ni-NTA (Thermo Scientific) column pre-equilibrated with Lysis Buffer. The beads were washed with 10 ml Lysis buffer and 2 × 30 ml of Wash Buffer (50 mM Tris–HCl pH 7.9, 500 mM NaCl, 30 mM Imidazole). His6-PHD2 was eluted by applying 10 ml Elution Buffer (50 mM Tris–HCl pH 7.9, 500 mM NaCl, 1 M Imidazole) to the column. Ni-NTA purified His6-PHD2 was dialyzed using a 10 kDa cut-off dialysis membrane against 2 L of Dialysis Buffer (50 mM Tris–HCl pH 7.5) for 4 h at 4 °C. […] Dialysis and thrombin cleavage were allowed to continue overnight at 4 °C. Thrombin-cleaved PHD2 was collected and applied to a 2 ml Ni-NTA column pre-equilibrated with Dialysis Buffer to remove uncleaved protein and cleaved His6 tags. The flow-through was collected and the beads were washed with 10 ml of Dialysis Buffer supplemented with 5 mM imidazole. The 5 mM imidazole eluate was pooled with the flow through and concentrated with an Amicon 10 kDa cut-off centrifugal concentrator (Millipore) to a volume of ~600 µl. The concentrated PHD2 was then applied to a Superdex 75 Increase 10/300 GL column (Cytiva) equilibrated with Dialysis Buffer or Labeling Buffer (50 mM HEPES pH 7.5, 150 mM NaCl) depending on the intended use of the sample. Eluted fractions containing PHD2 were collected and pooled. For the His6-PHD2 used in the indirect hydroxylation assay, no thrombin was added during dialysis steps therefore the His6-tag was not removed and the subsequent passage of the sample through Ni-NTA beads to remove His6-tags was not performed. Otherwise, the purification protocol for His6-PHD2 is the same as thrombin-cleaved PHD2. All purification steps were analyzed by SDS–PAGE and the Superdex 75 Increase chromatogram was used to assess size and aggregation, see Supplementary Fig. 5 for a representative purification assessment.
Labeling was conducted at room temperature for 1 h in the dark. Excess dye was then removed first by the passage of the sample through a PD-10 desalting column containing Sephadex G-25 resin (Cytiva) equilibrated with Dialysis Buffer and then any remaining excess dye was removed via repeated 10-fold dilution in Dialysis Buffer and subsequent concentration in an Amicon 10 kDa cut off centrifugal filter until the dye could no longer be detected in the concentrator flow through by Absorbance at 650 nm.
MST measurements were taken using a Monolith NT.115 (Nanotemper Technologies) at room temperature using standard MST capillaries (Nanotemper Technologies). […] For each HIFα-CODD peptide, ~1 mg dry weight of peptide was dissolved in 200 µl of 50 mM Tris–HCl pH 8.0 and concentrations were measured using UV absorbance at 280 nm for most peptides and BCA assay (Thermo Scientific) for Y532C and Y532H peptides using known concentrations of the WT HIF2α-CODD peptide to create a standard curve.

pVHL = settings: prolyl-hydroxylated HIF2α peptides; cited from earlier work
Source text: (§1) Pacak-Zhuang syndrome is a pseudohypoxic disease resulting from the inappropriate stabilization of HIF2α under normoxic conditions caused by gain-of-function missense mutations in the CODD region of HIF2α. These missense mutations stabilize HIF2α by ultimately inhibiting proteasome-mediated destruction of HIF2α[2],[6],[21]. Previously, we hypothesized that the mutations in the HIF2α-CODD region disrupted the pVHL/HIF2α interface. This appeared to be true for most Class 1 mutants examined to date.

PHD = settings: cited from earlier work
Source text: as §1

[2] = target: T1, PHD2 (prolyl-hydroxylase domain, residues 181–426); assay: Aggregation of PHD2 by HIF2α-CODD peptides in MST experiments (MST time traces); assay type: physicochemical; settings: peptide dilution series with PHD2, room temperature
Description: MST measurements were taken using a Monolith NT.115 (Nanotemper Technologies) at room temperature using standard MST capillaries (Nanotemper Technologies). A 2x stock of PHD2-647 was created by diluting PHD2-647 from a 10 µM stock to 50 nM with MST Buffer (50 mM Tris–HCl pH 7.5, 1 mM NOG, 10 µM FeSO4, 5 mg/ml BSA). For each HIFα-CODD peptide, ~1 mg dry weight of peptide was dissolved in 200 µl of 50 mM Tris–HCl pH 8.0 and concentrations were measured using UV absorbance at 280 nm for most peptides and BCA assay (Thermo Scientific) for Y532C and Y532H peptides using known concentrations of the WT HIF2α-CODD peptide to create a standard curve. The UV absorbance extinction coefficients for all HIF1α-CODD and HIF2α-CODD peptides used in this study is 1490 M^−1 cm^−1 except for HIF2α-CODD D539Y (2980 M^−1 cm^−1), HIF2α-CODD G537W (6990 M^−1 cm^−1) and HIF2α-CODD Y532C and Y532H which were not analyzed via absorbance at 280 nm due to the lack of any Tyrosine or Tryptophan residues in the peptides. For each experiment, 16 different concentrations of 15 µl peptide solution were created by 2-fold serial dilution of the peptide stock in 50 mM Tris–HCl pH 8.0. Each of the 16 peptide solutions was then mixed with an equal volume (15 µl) of 2× PHD2-647 solution resulting in a final 1× concentration of PHD2-647 at 25 nM. […] MST measurements were taken at 20% fluorescence excitation LED power and 40% (medium) infrared laser power. For each MST time trace initial fluorescence (pre-infrared laser activation) was recorded for 5 s, infrared laser on time was 20 s, and fluorescence post-infrared laser deactivation was recorded for 3 s. MST data was analyzed using the M.O. Affinity Analysis software (Nanotemper Technologies) and the 1:1 Kd binding model was fit to experimental data. […]
(also on this page, place not known: Relative Fluorescence Relative Fluorescence -10 30 Relative Fluorescence -10 30 Relative Fluorescence -10 30 Relative Fluorescence -10 30 Relative Fluorescence aggrega?on, (f) curves HIF2α-CODD)

[3] = target: Alexa 647 labeled PHD2 (catalytic / prolyl-hydroxylase domain, residues 181-426) (human) (UniProt Q9GZT9); assay: MST; 25 nM Alexa 647 labeled PHD2, unlabeled peptide in 16 two-fold dilutions; room temperature; MST Buffer 50 mM Tris-HCl pH 7.5, 1 mM NOG, 10 µM FeSO4, 5 mg/ml BSA mixed 1:1 with peptide in 50 mM Tris-HCl pH 8.0; 1:1 Kd model; triplicate
Sequence of Alexa 647 labeled PHD2 (catalytic / prolyl-hydroxylase domain, residues 181-426) (human) (Q9GZT9 181-426): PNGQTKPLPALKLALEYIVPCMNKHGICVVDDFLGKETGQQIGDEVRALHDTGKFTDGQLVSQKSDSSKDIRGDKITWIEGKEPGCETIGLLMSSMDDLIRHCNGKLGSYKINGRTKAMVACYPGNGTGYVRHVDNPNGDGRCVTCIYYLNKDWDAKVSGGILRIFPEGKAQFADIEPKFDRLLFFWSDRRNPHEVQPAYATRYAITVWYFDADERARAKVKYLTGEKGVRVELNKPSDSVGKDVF

T1 sequence (Q9GZT9 181-426): as above

In the case of “HIF2α A530V: Class 1 mutant HIF2α-CODD peptide (Ac-ELDLETLVPYIPMDGEDFQL-NH2)”, the “PHD2 affinity / Kd compared with another peptide (in words)” value ([1]; MST, with NOG) is reported as “significant effect on PHD2 binding affinity; also recorded: more detrimental to the interaction than A530T”, the “Kd (MST-determined PHD2/HIFα-CODD complex dissociation constant)” value ([1]; MST) is reported as “No binding” and the “Kd (Fit Results, Fit Model Kd)” value ([1]; MST, target WT-PHD2(181-426), TargetConcentration 2.5e-8, ligand HIF2a-CODD peptide, MST-Power Medium, Excitation-Power 20 Nano - RED, hot region 19 to 20, unit of Kd not printed (doses of the same sheet are in M), Fig. 1c source data) is reported as 0.03648. For the same molecule, the “Binding affinity for pVHL (in words)” value (pVHL) was “no effect on pVHL binding” and the “PHD-mediated hydroxylation (in words)” value (PHD) was “appeared to decrease PHD-mediated hydroxylation”.

With `CC[C@H](C)[C@H](NC(=O)[C@H](Cc1ccc(O)cc1)NC(=O)[C@@H]1CCCN1C(=O)[C@H](C)NC(=O)[C@H](CC(C)C)NC(=O)[C@@H](NC(=O)[C@H](CCC(=O)O)NC(=O)[C@H](CC(C)C)NC(=O)[C@H](CC(=O)O)NC(=O)[C@H](CC(C)C)NC(=O)[C@H](CCC(=O)O)NC(C)=O)[C@@H](C)O)C(=O)N1CCC[C@H]1C(=O)N[C@@H](CCSC)C(=O)N[C@@H](CC(=O)O)C(=O)NCC(=O)N[C@@H](CCC(=O)O)C(=O)N[C@@H](CC(=O)O)C(=O)N[C@@H](Cc1ccccc1)C(=O)N[C@@H](CCC(N)=O)C(=O)N[C@@H](CC(C)C)C(N)=O` [HIF2α WT] the “Binding to PHD2 (in words)” value ([1]; MST) was “showing binding”, the Kd ([1]; read-out: Kd (MST-determined PHD2/HIFα-CODD complex dissociation constant)) was 34 ± 2 µM and the “Aggregation of PHD2 in MST experiments” value [2] was “no aggrega?on”.

“HIF2α-CODD WT peptide (from UniProt Q99814 523-542)” showed a Kd [3] of 34 µM.

With “HIF2α P531A: Class 1 mutant HIF2α-CODD peptide (Ac-ELDLETLAAYIPMDGEDFQL-NH2)” the “Kd (MST-determined PHD2/HIFα-CODD complex dissociation constant)” value ([1]; MST) was “No binding^a” and the “Aggregation of PHD2 in MST experiments” value [2] was “some evidence of aggrega?on at the highest concentra?on”.

In the case of “HIF2α WT-OH: synthetically hydroxylated WT HIF2α-CODD-OH peptide, negative control (Ac-ELDLETLA[Hyp]YIPMDGEDFQL-NH2; SMILES CC[C@H](C)[C@H](NC(=O)[C@H](Cc1ccc(O)cc1)NC(=O)[C@@H]1C[C@@H](O)CN1C(=O)[C@H](C)NC(=O)[C@H](CC(C)C)NC(=O)[C@@H](NC(=O)[C@H](CCC(=O)O)NC(=O)[C@H](CC(C)C)NC(=O)[C@H](CC(=O)O)NC(=O)[C@H](CC(C)C)NC(=O)[C@H](CCC(=O)O)NC(C)=O)[C@@H](C)O)C(=O)N1CCC[C@H]1C(=O)N[C@@H](CCSC)C(=O)N[C@@H](CC(=O)O)C(=O)NCC(=O)N[C@@H](CCC(=O)O)C(=O)N[C@@H](CC(=O)O)C(=O)N[C@@H](Cc1ccccc1)C(=O)N[C@@H](CCC(N)=O)C(=O)N[C@@H](CC(C)C)C(N)=O)”, the “Binding to PHD2 (in words)” value ([1]; MST) is reported as “did not bind to PHD2”, the “Binding to PHD2 (in words)” value ([1]; MST, listed as WT-OH HIF2α-CODD) is reported as “no” and the “Kd (MST-determined PHD2/HIFα-CODD complex dissociation constant)” value ([1]; MST) is reported as “No Binding”. For the same molecule, the “Aggregation of PHD2 in MST experiments” value [2] was “no ag grega?on”.
